Data published in paper PMC10256812.

B1: HA-tagged SREBF1 (wild type), expressed in C4-2B cells [not stated] / KAT2A/GCN5, endogenous [human (endogenous in C4-2B, LAPC4)] (parent)
chain 1: MDEPPFSEAALEQALGEPCDLDAALLTDIEDMLQLINNQDSDFPGLFDPPYAGSGAGGTDPASPDTSSPGSLSPPPATLSSSLEAFLSGPQAAPSPLSPPQPAPTPLKMYPSMPAFSPGPGIKEESVPLSILQTPTPQPLPGALLPQSFPAPAPPQFSSTPVLGYPSPPGGFSTGSPPGNTQQPLPGLPLASPPGVPPVSLHTQVQSVVPQQLLTVTAAPTAAPVTTTVTSQIQQVPVLLQPHFIKADSLLLTAMKTDGATVKAAGLSPLVSGTTVQTGPLPTLVSGGTILATVPLVVDAEKLPINRLAAGSKAPASAQSRGEKRTAHNAIEKRYRSSINDKIIELKDLVVGTEAKLNKSAVLRKAIDYIRFLQHSNQKLKQENLSLRTAVHKSKSLKDLVSACGSGGNTDVLMEGVKTEVEDTLTPPPSDAGSPFQSSPLSLGSRGSGSGGSGSDSEPDSPVFEDSKAKPEQRPSLHSRGMLDRSRLALCTLVFLCLSCNPLASLLGARGLPSPSDTTSVYHSPGRNVLGTESRDGPGWAQWLLPPVVWLLNGLLVLVSLVLLFVYGEPVTRPHSGPAVYFWRHRKQADLDLARGDFAQAAQQLWLALRALGRPLPTSHLDLACSLLWNLIRHLLQRLWVGRWLAGRAGGLQQDCALRVDASASARDAALVYHKLHQLHTMGKHTGGHLTATNLALSALNLAECAGDAVSVATLAEIYVAAALRVKTSLPRALHFLTRFFLSSARQACLAQSGSVPPAMQWLCHPVGHRFFVDGDWSVLSTPWESLYSLAGNPVDPLAQVTQLFREHLLERALNCVTQPNPSPGSADGDKEFSDALGYLQLLNSCSDAAGAPAYSFSISSSMATTTGVDPVAKWWASLTAVVIHWLRRDEEAAERLCPLVEHLPRVLQESERPLPRAALHSFKAARALLGCAKAESGPASLTICEKASGYLQDSLATTPASSSIDKAVQLFLCDLLLVVRTSLWRQQQPPAPAPAAQGTSSRPQASALELRGFQRDLSSLRRLAQSFRPAMRRVFLHEATARLMAGASPTRTHQLLDRSLRRRAGPGGKGGAVAELEPRPTRREHAEALLLASCYLPPGFLSAPGQRVGMLAEAARTLEKLGDRRLLHDCQQMLMRLGGGTTVTSS
chain 2: MAEPSQAPTPAPAAQPRPLQSPAPAPTPTPAPSPASAPIPTPTPAPAPAPAAAPAGSTGTGGPGVGSGGAGSGGDPARPGLSQQQRASQRKAQVRGLPRAKKLEKLGVFSACKANETCKCNGWKNPKPPTAPRMDLQQPAANLSELCRSCEHPLADHVSHLENVSEDEINRLLGMVVDVENLFMSVHKEEDTDTKQVYFYLFKLLRKCILQMTRPVVEGSLGSPPFEKPNIEQGVLNFVQYKFSHLAPRERQTMFELSKMFLLCLNYWKLETPAQFRQRSQAEDVATYKVNYTRWLCYCHVPQSCDSLPRYETTHVFGRSLLRSIFTVTRRQLLEKFRVEKDKLVPEKRTLILTHFPKFLSMLEEEIYGANSPIWESGFTMPPSEGTQLVPRPASVSAAVVPSTPIFSPSMGGGSNSSLSLDSAGAEPMPGEKRTLPENLTLEDAKRLRVMGDIPMELVNEVMLTITDPAAMLGPETSLLSANAARDETARLEERRGIIEFHVIGNSLTPKANRRVLLWLVGLQNVFSHQLPRMPKEYIARLVFDPKHKTLALIKDGRVIGGICFRMFPTQGFTEIVFCAVTSNEQVKGYGTHLMNHLKEYHIKHNILYFLTYADEYAIGYFKKQGFSKDIKVPKSRYLGYIKDYEGATLMECELNPRIPYTELSHIIKKQKEIIKKLIERKQAQIRKVYPGLSCFKEGVRQIPVESVPGIRETGWKPLGKEKGKELKDPDQLYTTLKNLLAQIKSHPSAWPFMEPVKKSEAPDYYEVIRFPIDLKTMTERLRSRYYVTRKLFVADLQRVIANCREYNPPDSEYCRCASALEKFFYFKLKEGGLIDK

Variants of: B1
Test: co-immunoprecipitation (anti-HA affinity gel, immunoblot with KAT2A antibody), band quantification
Conditions: with KAT2A/GCN5, endogenous [human (endogenous in C4-2B, LAPC4)]; C4-2B cells; + Abi; parent: 1

Variant	response
chain 1 Y673A Y951A	0.01
